T1: human TNFR2 expressed on cells (Expi293 cells stably expressing huTNFR2) (human, UniProt P20333 23-461)
T1 construct: whole, on cells; Also used here as the target of the Treg assay (native TNFR2 on human primary Treg cells); also called huTNFR2 expressed cells; Expi293-TNFR2 cells
T1 sequence (looked up): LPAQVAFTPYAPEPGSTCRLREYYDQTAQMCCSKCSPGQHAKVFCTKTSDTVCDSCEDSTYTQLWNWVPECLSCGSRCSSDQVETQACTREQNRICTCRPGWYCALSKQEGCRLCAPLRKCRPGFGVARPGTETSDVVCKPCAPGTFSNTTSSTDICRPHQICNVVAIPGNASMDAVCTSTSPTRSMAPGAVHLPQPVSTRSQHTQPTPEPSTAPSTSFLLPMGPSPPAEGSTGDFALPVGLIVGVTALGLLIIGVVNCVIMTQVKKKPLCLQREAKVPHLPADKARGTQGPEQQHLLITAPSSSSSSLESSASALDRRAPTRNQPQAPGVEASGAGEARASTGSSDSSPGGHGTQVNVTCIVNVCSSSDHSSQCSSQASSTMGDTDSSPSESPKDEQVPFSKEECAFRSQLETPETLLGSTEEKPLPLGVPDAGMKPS

T2: human TNFR2 extracellular domain fused to human IgG1 Fc (human, UniProt P20333 23-257)
T2 construct: also called TNFR2-huFc; huTNFR2; not shown: C-terminal human IgG1 Fc
T2 sequence: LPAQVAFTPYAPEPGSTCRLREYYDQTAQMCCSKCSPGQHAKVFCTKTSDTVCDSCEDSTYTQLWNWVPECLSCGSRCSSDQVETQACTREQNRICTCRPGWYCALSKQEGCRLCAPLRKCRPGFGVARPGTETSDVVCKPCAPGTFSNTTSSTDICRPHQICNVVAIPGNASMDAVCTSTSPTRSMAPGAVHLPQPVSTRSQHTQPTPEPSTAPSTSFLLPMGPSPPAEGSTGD


Key:
[1] = target: T1, human TNFR2 expressed on cells (Expi293 …); assay: flow cytometry on Expi293 cells stably expressing huTNFR2
Description: The coding sequence of huTNFR2 (Uniprot, P20333) was cloned into a lentiviral vector and the virus was packaged according to the instruction of the virus packaging kit (Lenti-X™ Packaging Single Shots, Cat #631275, Takada). The Expi293 cells were transduced with the recombinant virus and selected by puromycin. The cell line stably expressing huTNFR2 was incubated with anti-TNFR2 antibodies in PBS with 0.5% BSA, 1 mM EDTA, and 0.1% sodium azide (FACS buffer) for 30 minutes at 4° C. The cells were washed, and then incubated with 10 nM phycoerythrin (PE) conjugated anti-Human Fe Ab (Biolegend, cat #409304) for 20 minutes at 4° C. Cells were washed and then […] by flow cytometry with Attune (ThermoFisher Scientific). Data were analyzed with FlowJo software. Antibody binding is represented as median fluorescence intensity (MFI).
As shown by the results in Table 9 and FIG. 4A, the anti-TNFR2 antibodies, 51B5, 102E4, 85G8.4, 29G3, 11C1, and 15H10 bind to Expi293-TNFR2 cells dose-dependently and potently.

[2] = target: T2, human TNFR2 extracellular domain fused …; assay: blocking ELISA: antibody pre-mixed with huTNFR2, binding of huTNFR2 to coated human TNFα read out
Description: 96-well round bottom ELISA plates were coated overnight at 4° C. with 50 μL/well of 0.5 μg/mL human TNFα recombinant protein (R&D system, Cat #210-TA-100) in coating buffer. After removing the coating solution, blocking buffer was added into the plates followed by incubation at room temperature for 1 hour in order to block unspecific binding. During the blocking period, hybridoma antibodies samples were mixed with 0.5 μg/mL TNFR2-huFc at a 1:1 volume ratio and incubated at room temperature for another 1.5 hours. Then 50 μL/well of antigen-antibody mix solution was transferred into TNFα coated wells and incubated at room temperature for 1.5 hours. Plates were then washed 5 times with wash buffer. Then, 50 μL/well of goats anti-human IgG Fc-AP (Southern Biotech, cat #2014-04) at 1:2000 dilution in assay buffer was added, incubated at room temperature for 1 hour, washed 4 times with wash buffer and developed for 30 minutes with 50 μL/well of pNPP substrate. Plates were analyzed with a Synergy HT (Bio-TEK) at 405 nm. Parental hybridomas with the desired human and cynoTNFR2 binding as well as the ability to block human TNFR2 and human TNFα binding were prioritized for subcloning and further characterization. Subcloning was carried out with limited dilution and visual inspection was performed to ensure clonality. Hybridoma subclones were screened with the same binding and blocking assays and selected positive hits were cryopreserved.
TNFR2 blocking by purified recombinant chimeric antibodies: Human TNFR2 blocking ELISA was performed on purified recombinant chimeric antibodies following the same protocol as described above, except that 50 μL/well of serial dilution of purified antibodies (starting at 10 μg/mL, 1:3 dilution) in assay buffer was added into the reaction. The blocking IC₅₀ value represents the antibody concentration that inhibited 50% of huTNFR2 or cynoTNFR2 binding to coated human TNFα or cynomolgus monkey TNFα.

[3] = target: T1, human TNFR2 expressed on cells (Expi293 …); assay: flow cytometry: inhibition of binding of 10 nM Alexa Fluor 647 human TNFα to Expi293 cells expressing huTNFR2
Description: Expi293 cells stably expressing huTNFR2 were incubated with anti-TNFR2 antibodies for 30 minutes at 4° C. […] Cells were washed and acquired by flow cytometry with Attune. Data were analyzed with FlowJo software. TNFα binding is represented as MFI.
As shown in Table 10 and FIG. 4B, the anti-TNFR2 chimeric antibodies, 51B5, 85G8.4, 29G3, 11C1, and 15H10 inhibited soluble TNFα binding to TNFR2-expressing Expi293 cells dose-dependently and potently.

Binder	EC50 [1] [nM]	IC50 [2] [nM]	IC50 [3] [nM]
85G8.4 chimeric anti-TNFR2 antibody (antibody, V domains shown, Chimeric: mouse variable domains with human constant regions, made as recombinant IgG1) VH: EVQLQQSGPELVKPGASVKISCKTSGYTFTDFNMDWVKQSHGKSLEWIGYINPNNGDAAYNQKFKSKATLTVDKSSNTAYMELHSLTSDDSAVYYCARWGWAFAYWGQGTLVTVSA VL: DIVMTQSHKIMSTSVGDRVSITCKASQDVKTAVAWYQQKPGQSPKLLIYATSYRYTGVPDRFTGSGSGTDFTFTISTVQAEDLAVYYCQQHYSIPYTFGGGTKLEIK	1.47	0.583	1.57
15H10 chimeric anti-TNFR2 antibody (antibody, V domains shown, Chimeric: mouse variable domains with human constant regions, made as recombinant IgG1) VH: DVQLQESGPGLVTPSQSLSLTCSVTGYSITSGYYWNWIRQFPGNKLEWMGYITYDGNNNYNPSLKSRFSITRDTSKNQFFLKLNSVTSEDTATYYCARGDYGDSAMDYWGQGTSVTVSS VL: EIVLTQSPAITAASLGQKVTITCSASSGVNYMHWYQQKSGTSPKPWIYEISKLASGVPARFSGSGSGTSYSLTISSMEAEDAAIYYCQQWNYPLITFGAGTKVELK	2.52	0.584	3.37
11C1 chimeric anti-TNFR2 antibody (antibody, V domains shown, Chimeric: mouse variable domains with human constant regions, made as recombinant IgG1) VH: DVQLRESGPGLVTPSQSLSLTCSVTGYSITSGYYWNWIRQIPGNKLEWMGYITYDGNNNYDPSLKNRISITRDTSKNQFFLTLNSVTSEDTATYYCARGDYGDSAMDYWGQGTSVTVSS VL: EIVLTQSPAITAASLGQKVTITCSASSSVSYMHWYQQKSGTSPKPWIYEISKLASGVPARFSGSGSGTSYSLIISSMEAEDAAIYYCQQWNYPLITFGAGTKLELK	2.04	0.723	2.51
29G3 chimeric anti-TNFR2 antibody (antibody, V domains shown, Chimeric: mouse variable domains with human constant regions, made as recombinant IgG1) VH: EVMLVESGGASVKPGGSLKLSCAASGFTFSNFAMSWVRQTPEKRLEWVATIRSGDNYSYYSDNVKGRFTISRDNARNTLYLQMSSLRSKDTSIYYCARNWDKVFDYWGQGTTLTVSS VL: DIVLTQSPASLAVSLGQRATISCRASESVDSYGYSFMHWYQQKPGQPPKLLIYRASNLKSGIPARFSGSGSRTDFTLTINPVEADDVATYYCQQSNEDHTFGGGTKLEIK	0.654	0.505	0.275

From patent US20250011448A1 (STAIDSON BIOPHARMA, published 2025)
